Blank lines part the entries; values can stand above or below the binder they belong to.
Key:
[1] = biological target: T1, TIGIT (UniProt Q495A1 22-244); assay: flow cytometry, cells expressing TIGIT
T1 construct: whole, on cells; cell-expressed counter structure
T1 sequence (looked up): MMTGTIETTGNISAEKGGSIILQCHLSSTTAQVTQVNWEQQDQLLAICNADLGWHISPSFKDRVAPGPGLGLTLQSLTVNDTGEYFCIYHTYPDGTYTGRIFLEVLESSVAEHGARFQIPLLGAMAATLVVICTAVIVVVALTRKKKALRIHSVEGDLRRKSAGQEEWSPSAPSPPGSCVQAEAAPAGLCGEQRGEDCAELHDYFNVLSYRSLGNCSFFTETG

[2] = biological target: T2, TIGIT (Homo sapiens (Human), UniProt Q495A1 22-244); assay: flow cytometry, transfected cells
T2 construct: on transfected cells
T2 sequence: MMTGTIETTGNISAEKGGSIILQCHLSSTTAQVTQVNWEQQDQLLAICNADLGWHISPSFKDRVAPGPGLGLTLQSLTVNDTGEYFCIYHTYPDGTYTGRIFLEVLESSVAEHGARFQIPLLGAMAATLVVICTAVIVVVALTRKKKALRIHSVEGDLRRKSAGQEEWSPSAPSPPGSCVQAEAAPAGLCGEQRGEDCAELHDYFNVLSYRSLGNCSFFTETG

[3] = biological target: T3, CD96 (UniProt P40200 22-585, limits assumed); assay: flow cytometry, transfected cells
T3 construct: whole, on cells; on transfected cells
T3 sequence (looked up): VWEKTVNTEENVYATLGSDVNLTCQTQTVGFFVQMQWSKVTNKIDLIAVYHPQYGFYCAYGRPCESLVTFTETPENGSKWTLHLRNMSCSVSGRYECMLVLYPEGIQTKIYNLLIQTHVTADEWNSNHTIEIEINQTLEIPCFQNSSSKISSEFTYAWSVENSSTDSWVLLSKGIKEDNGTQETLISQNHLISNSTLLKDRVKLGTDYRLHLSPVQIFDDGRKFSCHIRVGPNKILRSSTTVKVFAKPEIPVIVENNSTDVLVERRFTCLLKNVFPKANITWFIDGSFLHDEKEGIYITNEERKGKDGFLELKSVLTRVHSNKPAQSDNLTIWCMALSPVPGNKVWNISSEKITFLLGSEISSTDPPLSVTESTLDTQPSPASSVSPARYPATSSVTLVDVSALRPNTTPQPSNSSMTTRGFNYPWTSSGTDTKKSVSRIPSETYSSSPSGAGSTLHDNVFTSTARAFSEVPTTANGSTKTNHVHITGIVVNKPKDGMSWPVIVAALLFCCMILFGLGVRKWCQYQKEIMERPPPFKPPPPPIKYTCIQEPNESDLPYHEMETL

[4] = biological target: T4, CD226 (Homo sapiens (Human), UniProt Q15762 19-336); assay: flow cytometry, transfected cells
T4 construct: on transfected cells
T4 sequence: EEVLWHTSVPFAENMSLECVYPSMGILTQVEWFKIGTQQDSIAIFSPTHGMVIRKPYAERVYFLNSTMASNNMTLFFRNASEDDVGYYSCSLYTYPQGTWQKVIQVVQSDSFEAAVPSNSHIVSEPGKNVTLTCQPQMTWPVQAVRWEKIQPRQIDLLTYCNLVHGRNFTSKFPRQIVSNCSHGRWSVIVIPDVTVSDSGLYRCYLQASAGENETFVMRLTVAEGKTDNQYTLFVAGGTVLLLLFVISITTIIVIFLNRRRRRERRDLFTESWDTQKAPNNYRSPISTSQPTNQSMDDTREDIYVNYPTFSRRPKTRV

[5] = biological target: T5, CD28 (Homo sapiens (Human), UniProt P10747 19-220); assay: flow cytometry, HEK293 cells transfected with CD28
T5 construct: Expressed on transfected HEK293 cells

MFI at 25 nM [1]: 3000
B1: variant CD155 IgV-Fc V9L, V11M, P18S, N35S, S54G, Q62K, L79P, L104M, T107M, V115M (Fc fusion, not shown: a dimerising Fc or GST)
chain: WPPPGTGDLVMQAPTQVSGFLGDSVTLPCYLQVPSMEVTHVSQLTWARHGESGGMAVFHQTKGPSYSESKRLEFVAARPGAELRNASLRMFGLRVEDEGNYTCMFVMFPQGSRSMDIWLRVL

MFI parental ratio [2]: 1.1 ratio
MFI parental ratio [3]: 0.8 ratio
MFI parental ratio [4]: 1 ratio
B2: variant CD155 IgV-Fc P18T, F91S, R94H (Fc fusion, not shown: a dimerising Fc or GST)
chain: WPPPGTGDVVVQAPTQVTGFLGDSVTLPCYLQVPNMEVTHVSQLTWARHGESGSMAVFHQTQGPSYSESKRLEFVAARLGAELRNASLRMSGLHVEDEGNYTCLFVTFPQGSRSVDIWLRVL

MFI at 66.6 nM [5]: 3070
B3: WT CD80 ECD Fc (Fc fusion, not shown: a dimerising Fc or GST)
chain: VIHVTKEVKEVATLSCGHNVSVEELAQTRIYWQKEKKMVLTMMSGDMNIWPEYKNRTIFDITNNLSIVILALRPSDEGTYECVVLKYEKDAFKREHLAEVTLSVKADFPTPSISDFEIPTSNIRRIICSTSGGFPEPHLSWLENGEELNAINTTVSQDPETELYAVSSKLDFNMTTNHSFMCLIKYGHLRVNQTFNWNTTKQEHFPDN
